Experimental findings from patent US20160199445A1, “USE OF ARPIN A NEW INHIBITOR OF THE ARP2/3 COMPLEX FOR THE DIAGNOSIS AND TREATMENT OF DISEASES” (CENTRE NATIONAL DE LA RECHERCHE SCIENTIFIQUE, priority 2013, published 2016) are described below.

Assay [1] deals with Purified Arp2/3 complex. Nature of the assay: fluorescence anisotropy, competition with labelled ArpinA bound to purified Arp2/3 complex. A general note: Polarisation of emitted light reports the rotation of a fluorescent probe.
Assay [2] deals with Purified Arp2/3 complex. Put plainly: fluorescence anisotropy; labelled ArpinA peptide bound to purified Arp2/3 titrated with purified Arpin FL.

Usually Kd stands for the equilibrium constant for the complex coming apart. As to “Human full length Arpin (residues 1-226), purified from E. coli, cleaved off GST by TEV protease (from UniProt Q7Z6K5 1-226)”, the IC50 (read off the curve) in assay [1] came out at 0.3 µM. The values for the Kd in assay [1] and in assay [2] were 205 nM and 200 nM, respectively.
